Assay [1] addresses T1, Mcm4 (budding yeast, UniProt P30665 1-933).
T1 construct: Mcm4, budding yeast
T1 sequence: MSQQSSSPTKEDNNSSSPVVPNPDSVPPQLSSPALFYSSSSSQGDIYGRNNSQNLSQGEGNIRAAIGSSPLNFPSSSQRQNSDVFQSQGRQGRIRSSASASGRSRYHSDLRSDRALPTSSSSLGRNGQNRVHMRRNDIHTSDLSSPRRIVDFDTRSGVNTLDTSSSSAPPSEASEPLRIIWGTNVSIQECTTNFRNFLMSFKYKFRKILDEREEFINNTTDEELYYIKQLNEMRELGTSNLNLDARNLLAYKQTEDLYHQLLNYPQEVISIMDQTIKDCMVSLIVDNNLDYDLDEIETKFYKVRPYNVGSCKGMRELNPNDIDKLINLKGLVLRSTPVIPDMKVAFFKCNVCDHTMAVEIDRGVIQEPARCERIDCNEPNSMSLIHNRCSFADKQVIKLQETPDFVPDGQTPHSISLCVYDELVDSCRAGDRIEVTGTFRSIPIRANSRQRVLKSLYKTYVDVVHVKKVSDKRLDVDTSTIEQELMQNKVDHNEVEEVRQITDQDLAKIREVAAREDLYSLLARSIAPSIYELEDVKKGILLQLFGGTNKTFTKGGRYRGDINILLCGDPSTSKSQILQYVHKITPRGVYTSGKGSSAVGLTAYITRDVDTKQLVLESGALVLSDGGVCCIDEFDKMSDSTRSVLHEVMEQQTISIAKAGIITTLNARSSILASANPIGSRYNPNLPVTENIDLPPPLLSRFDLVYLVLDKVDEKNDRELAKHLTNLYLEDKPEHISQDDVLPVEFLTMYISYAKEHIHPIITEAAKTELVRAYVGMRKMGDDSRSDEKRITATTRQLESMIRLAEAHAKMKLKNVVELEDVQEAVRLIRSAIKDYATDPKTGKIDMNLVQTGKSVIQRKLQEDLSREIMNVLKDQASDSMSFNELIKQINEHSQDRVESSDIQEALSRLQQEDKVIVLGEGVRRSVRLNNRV
Put plainly: cryo-EM structure; MCM loading reaction on nucleosome-flanked ARS1 DNA (15 nM) with CDK-phosphorylated Orc6-4A ORC (40 nM) and MCM-Cdt1 (80 nM), 2.2 mM ATP, 30°C 30 min; SH and DH particles from the same data. As to conditions: both partners purified.

Assay [2] addresses T2, Mcm3 (budding yeast, UniProt P24279 1-971).
T2 construct: Mcm3, budding yeast
The description is as above. As to conditions: both partners purified.

T2 sequence (P24279 whole entry): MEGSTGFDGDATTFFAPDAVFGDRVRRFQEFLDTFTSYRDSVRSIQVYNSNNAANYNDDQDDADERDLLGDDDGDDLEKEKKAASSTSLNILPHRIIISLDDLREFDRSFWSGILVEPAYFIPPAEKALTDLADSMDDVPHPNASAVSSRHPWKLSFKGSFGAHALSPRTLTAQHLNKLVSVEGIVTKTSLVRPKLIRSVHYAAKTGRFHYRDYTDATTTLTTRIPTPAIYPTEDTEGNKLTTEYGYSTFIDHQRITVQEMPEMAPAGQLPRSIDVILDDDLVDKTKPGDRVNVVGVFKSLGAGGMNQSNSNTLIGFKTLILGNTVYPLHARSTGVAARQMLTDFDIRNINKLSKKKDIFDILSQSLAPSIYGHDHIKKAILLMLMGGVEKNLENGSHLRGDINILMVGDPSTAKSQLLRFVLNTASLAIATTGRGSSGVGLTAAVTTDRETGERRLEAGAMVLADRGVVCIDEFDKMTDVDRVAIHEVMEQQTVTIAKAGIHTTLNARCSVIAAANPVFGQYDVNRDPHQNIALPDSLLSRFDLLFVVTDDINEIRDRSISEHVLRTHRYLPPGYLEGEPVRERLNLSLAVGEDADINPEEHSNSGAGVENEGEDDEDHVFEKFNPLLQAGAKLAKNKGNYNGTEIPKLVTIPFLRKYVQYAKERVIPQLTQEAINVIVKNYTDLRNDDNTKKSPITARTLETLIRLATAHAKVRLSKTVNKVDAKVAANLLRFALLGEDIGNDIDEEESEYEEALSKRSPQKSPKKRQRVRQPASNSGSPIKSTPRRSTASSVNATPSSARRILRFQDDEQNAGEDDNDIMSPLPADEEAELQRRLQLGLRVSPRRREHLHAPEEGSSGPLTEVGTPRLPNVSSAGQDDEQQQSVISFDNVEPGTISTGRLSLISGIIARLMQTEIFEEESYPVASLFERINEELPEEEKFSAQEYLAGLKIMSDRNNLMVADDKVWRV

B1: Mcm7 (natural protein, budding yeast)
chain: MSAALPSIQLPVDYNNLFNEITDFLVTFKQDTLSSDATRNENEDENLDAENIEQHLLEKGPKYMAMLQKVANRELNSVIIDLDDILQYQNEKFLQGTQADDLVSAIQQNANHFTELFCRAIDNNMPLPTKEIDYKDDVLDVILNQRRLRNERMLSDRTNEIRSENLMDTTMDPPSSMNDALREVVEDETELFPPNLTRRYFLYFKPLSQNCARRYRKKAISSKPLSVRQIKGDFLGQLITVRGIITRVSDVKPAVEVIAYTCDQCGYEVFQEVNSRTFTPLSECTSEECSQNQTKGQLFMSTRASKFSAFQECKIQELSQQVPVGHIPRSLNIHVNGTLVRSLSPGDIVDVTGIFLPAPYTGFKALKAGLLTETYLEAQFVRQHKKKFASFSLTSDVEERVMELITSGDVYNRLAKSIAPEIYGNLDVKKALLLLLVGGVDKRVGDGMKIRGDINVCLMGDPGVAKSQLLKAICKISPRGVYTTGKGSSGVGLTAAVMKDPVTDEMILEGGALVLADNGICCIDEFDKMDESDRTAIHEVMEQQTISISKAGINTTLNARTSILAAANPLYGRYNPRLSPLDNINLPAALLSRFDILFLMLDIPSRDDDEKLAEHVTYVHMHNKQPDLDFTPVEPSKMREYIAYAKTKRPVMSEAVNDYVVQAYIRLRQDSKREMDSKFSFGQATPRTLLGIIRLSQALAKLRLADMVDIDDVEEALRLVRVSKESLYQETNKSKEDESPTTKIFTIIKKMLQETGKNTLSYENIVKTVRLRGFTMLQLSNCIQEYSYLNVWHLINEGNTLKFVDDGTMDTDQEDSLVSTPKLAPQTTASANVSAQDSDIDLQDA
notes: Mcm7, budding yeast
As to B1, the binding result in assay [1] and in assay [2] was “binds” each time.

The record behind these values is article doi:10.1101/2024.01.10.575016, “Cell Cycle Regulation has Shaped Budding Yeast Replication Origin Structure and Function” (bioRxiv, 2024).
